This is an account of results in publication PMC7733473, “Aberrant interaction of FUS with the U1 snRNA provides a molecular mechanism of FUS induced amyotrophic lateral sclerosis”.

The target of data set [1] is FUS-RRM (RRM-RGG2) (UniProt P35637). Briefly: ITC. The following applies: n = 0.85; K = (1.25 ± 0.08)e5; 13C/15N in RNA-observed NMR; ITC: 10 mM Na phosphate pH 6.8, 50 mM NaCl, 1 mM β-mercaptoethanol, 25 °C; NMR 313 K; SEC: 10 mM Na phosphate pH 6.8, 100 mM NaCl, 2 mM DTT; EMSA: 10 mM HEPES ….
Chain of FUS-RRM (RRM-RGG2) (UniProt P35637) (P35637 260-390): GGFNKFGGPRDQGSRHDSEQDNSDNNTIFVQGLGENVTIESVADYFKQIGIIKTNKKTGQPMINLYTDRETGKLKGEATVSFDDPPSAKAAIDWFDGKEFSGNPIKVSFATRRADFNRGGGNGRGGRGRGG
In data set [2] the test system is FUS-RBD WT, EMSA construct. The experiment in a line: EMSA. Particulars: 5 mM Mg2+, yeast tRNA and salmon sperm DNA; value given jointly with ITC; ITC: 10 mM Na phosphate pH 6.8, 50 mM NaCl, 1 mM β-mercaptoethanol, 25 °C; NMR 313 K; SEC: 10 mM Na phosphate pH 6.8, 100 mM NaCl, 2 mM DTT; EMSA: 10 mM HEPES ….
Data set [3] has as its system FUS-RBD (RRM-RGG2-ZnF). The experiment in a line: ITC. Particulars: n = 0.92; K = (1.37 ± 0.23)e7; ITC: 10 mM Na phosphate pH 6.8, 50 mM NaCl, 1 mM β-mercaptoethanol, 25 °C; NMR 313 K; SEC: 10 mM Na phosphate pH 6.8, 100 mM NaCl, 2 mM DTT; EMSA: 10 mM HEPES ….
Data set [4] relates to FUS-RBD (RRM-RGG2-ZnF). The experiment in a line: competition. Particulars: equimolar Sm proteins and U1-70K (1-216) present; ITC: 10 mM Na phosphate pH 6.8, 50 mM NaCl, 1 mM β-mercaptoethanol, 25 °C; NMR 313 K; SEC: 10 mM Na phosphate pH 6.8, 100 mM NaCl, 2 mM DTT; EMSA: 10 mM HEPES …; scale: % reduction of FUS capacity to impair core snRNP assembly.
For data set [5], the target named is FUS-RRM (RRM-RGG2) (UniProt P35637 260-390). Briefly: NMR titration; ITC: 10 mM Na phosphate pH 6.8, 50 mM NaCl, 1 mM β-mercaptoethanol, 25 °C; NMR 313 K; SEC: 10 mM Na phosphate pH 6.8, 100 mM NaCl, 2 mM DTT; EMSA: 10 mM HEPES pH 7.3, 100 mM KCl, 5 mM MgCl2, tRNA and ssDNA 10 µg/ml each, room temperature. Particulars: protein: recombinant.
Chain of FUS-RRM (RRM-RGG2) (UniProt P35637 260-390) (P35637 260-390): as above

With U1 SL3, in the data set with FUS-RRM (RRM-RGG2) [1], the Kd was 8000 nM.

For the molecule U1 SL34, the equilibrium dissociation constant (Kd) (in data set [2]; with FUS-RBD (RRM-RGG2-ZnF) [3]) was 70 nM throughout. The binding signal with FUS-RBD (RRM-RGG2-ZnF) [4] amounted to 75.

B1: U4 3'-ISL fragment (structured_RNA)
RNA: GGACUUGAAAUAUAGUCC
With B1, in the data set with FUS-RRM (RRM-RGG2) [5] (hairpin), the binding result is reported as “binds”.

B2: U6 21-28 (ssRNA)
RNA: UAUACUAA
Take B2: the binding result with FUS-RRM (RRM-RGG2) [5] (single strand) is reported as “binds”.

B3: U5 IL-1 fragment (structured_RNA)
RNA: GGCUCUGGUUUCUUCGGGAACAACUCUGAGCC
As to B3, the binding result in the data set with FUS-RRM (RRM-RGG2) [5] (hairpin with internal bulge, UUCG loop) is “binds”.
